According to US20250223354A1 (BIOTHEUS, published 2025):

T1: mouse TIGIT overexpressed on CHO cells (mouse, UniProt P86176 29-249)
T1 construct: whole, on cells; also called CHO-muTIGIT cells
T1 sequence (looked up): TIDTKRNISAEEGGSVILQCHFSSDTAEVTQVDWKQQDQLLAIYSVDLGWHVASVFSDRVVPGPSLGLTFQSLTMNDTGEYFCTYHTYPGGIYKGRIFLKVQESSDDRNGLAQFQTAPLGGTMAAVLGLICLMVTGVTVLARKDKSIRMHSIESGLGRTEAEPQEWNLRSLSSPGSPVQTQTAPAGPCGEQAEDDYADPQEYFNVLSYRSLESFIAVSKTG

T2: mouse TIGIT-his protein (mouse, UniProt P86176 29-148)
T2 construct: not shown: his tag
T2 sequence: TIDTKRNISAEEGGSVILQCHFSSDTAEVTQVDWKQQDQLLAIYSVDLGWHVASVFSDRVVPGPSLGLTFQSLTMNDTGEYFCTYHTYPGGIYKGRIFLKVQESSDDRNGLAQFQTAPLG

T3: human TIGIT expressed on cells (human, UniProt Q495A1 22-244)
T3 construct: whole, on cells; cDNA encoding human TIGIT in pCHO1.0 for CHO cells; also called CHO-huTIGIT cells
T3 sequence (looked up): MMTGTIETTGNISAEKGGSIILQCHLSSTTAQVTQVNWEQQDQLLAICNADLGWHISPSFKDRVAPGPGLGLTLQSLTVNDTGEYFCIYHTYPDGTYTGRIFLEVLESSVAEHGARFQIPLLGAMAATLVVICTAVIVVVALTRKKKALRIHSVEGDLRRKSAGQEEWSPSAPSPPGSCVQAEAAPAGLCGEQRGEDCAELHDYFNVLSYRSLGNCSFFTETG


Columns and labels:
[1] = target: T1, mouse TIGIT overexpressed on CHO cells; assay: flow cytometry, CHO-muTIGIT cells
Source text: Specifically, CHO cells overexpressing human TIGIT (CHO-huTIGIT cells), CHO cells overexpressing cynomolgus TIGIT (CHO-cynoTIGIT cells) and CHO cells overexpressing mouse TIGIT (CHO-muTIGIT cells) were generated by transfection of the pCHO1.0 vector (purchased from Invitrogen) with cDNA encoding human TIGIT, cynomolgus TIGIT and mouse TIGIT cloned into the multiple cloning site (MCS), respectively, followed by pressure screening. The overexpressing cells were expanded and adjusted to an appropriate cell density, and added to a 96-well flow cytometry plate. After centrifugation, the cells were added with a gradiently diluted sample to be tested, and incubated at 4° C. for 30 minutes. The cells were washed twice with PBS, and added with a fluorescent secondary antibody correspondingly diluted to an appropriate concentration, then incubated at 4° C. for 30 minutes, and washed twice with PBS. Cells were resuspended with PBS, and detected on a CytoFlex flow cytometer, and the corresponding MFI was calculated. Graphpad software was used for graphical analysis to obtain EC₅₀ values.

[2] = target: T4, cynomolgus monkey TIGIT-his protein (cynomolgus monkey); assay: BLI (ForteBio), IgG on AHQ sensor, 100 nM TIGIT-his, monovalent, 1:1 model
T4 construct: also called Cynomolgus TIGIT-his; not shown: his tag
T4 sequence (chain, as listed by the source): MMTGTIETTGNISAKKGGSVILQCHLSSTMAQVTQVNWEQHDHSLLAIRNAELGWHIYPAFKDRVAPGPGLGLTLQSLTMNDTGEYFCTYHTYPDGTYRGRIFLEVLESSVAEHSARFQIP
Procedure, shortened: (§1)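 Antibody-loaded sensors were dipped in 100 nM TIGIT-his antigen until plateau, then moved to analysis buffer for at least 2 min to follow dissociation. Rate constants and KD came from a 1:1 binding model.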

mouse TIGIT-his protein = target: T2, mouse TIGIT-his protein; assay: as above
Procedure, shortened: as §1

[3] = target: T3, human TIGIT expressed on cells; assay: flow cytometry on activated human primary T cells (TIGIT), readout positive cell (%); unit from the concentration axis
Source text: The binding activity of the anti-TIGIT antibody of the present invention to TIGIT on the surface of activated T cells was detected based on the flow cytometry detection method.
Specifically, human PBMC were sorted according to the experimental protocol provided by […] Company (stemcell, Cat. No.: #17951C) to obtain human total T cells. […] The activated T cells were adjusted to an appropriate cell density and added to a 96-well flow cytometry plate. After centrifugation, the gradiently diluted sample to be tested was added, and incubated at 4° C. for 30 minutes. Washing was carried out twice with PBS, and a fluorescent secondary antibody diluted to an appropriate concentration was added, incubated at 4° C. for 30 minutes, and washed twice with PBS. […]

[4] = target: T3, human TIGIT expressed on cells; assay: flow cytometry blocking assay: binding of human CD155 protein with mouse IgG2a Fc tag to CHO cells overexpressing human TIGIT, median fluorescence intensity APC-A; unit from the concentration axis
Protocol: Specifically, the CHO-huTIGIT cells were expanded and adjusted to a cell density of 2×10⁶ cells/mL, added to a 96-well flow plate at 100 μL/well, and centrifuged for later use. The purified monoclonal antibodies were diluted 3-fold with PBS starting at 400 nM for a total of 12 concentration gradients. The diluted sample was added at 60 μL/well to the cells-carrying 96-well flow plate, and incubated at 4° C. for 30 minutes. […] APC-conjugated goat anti-mouse IgG antibody diluted 100-fold with PBS was added at 100 μL/well, incubated at 4° C. for 30 minutes, and washed twice with PBS. Cells were resuspended with PBS at 100 μL/well, and detected on a CytoFlex flow cytometer, and the corresponding MFI was calculated.

EC50 [1] [nM] | Kd [2] [nM] | Kd (mouse TIGIT-his protein) [nM] | EC50 [3] [nM] | IC50 [4] [nM] | Binder
2.96 | 4.72 | 96 | 0.106 | 0.236 | anti-TIGIT monoclonal antibody 55796-G1 (antibody, V domains shown, Wild-type human IgG1 heavy chain constant region, human kappa light chain constant region) VH: QLQLQESGPGLVKPAETLSLTCTVSGGSISSYDHYWTWIRQPPGKGLEWIGTVYYSGSTFHNPSLKSRVTIPVDTSKNQFSLKLSSVTAADTAVYYCARVGPDVSHPPFDYWGQGTLVTVSS VL: not shown
3.36 | 4.9 | 61 | 0.0878 | 0.373 | anti-TIGIT monoclonal antibody 55796-G1LALA (antibody, V domains shown, Human IgG1 heavy chain constant region modified by L234A, L235A; human kappa light chain constant region; HEK293) VH: QLQLQESGPGLVKPAETLSLTCTVSGGSISSYDHYWTWIRQPPGKGLEWIGTVYYSGSTFHNPSLKSRVTIPVDTSKNQFSLKLSSVTAADTAVYYCARVGPDVSHPPFDYWGQGTLVTVSS VL: not shown
